# Experiment: soluble on expression in E. coli; label from the status in PepcDB or PDB records
row,Sequence,soluble on expression in E. coli
1,GMNIEKTRFCINRKIAPGLSIEAFFRLVKRLEFNKVELRNDMPSGSVTDDLNYNQVRNLAEKYGLEIVTINAVYPFNQLTEEVVKKTEGLLRDAQGVGARALVLCPLNDGTIVPPEVTVEAIKRLSDLFARYDIQGLVEPLGFRVSSLRSAVWAQQLIREAGSPFKVLLDTFHHHLYEEAEKEFASRIDISAIGLVHLSGVEDTRPTEALADEQRIMLSEKDVMQNYQQVQRLENMGYRGIYAFEPFSSQLASWSEAEIEEQINRSVSLLLQ,soluble
2,MKDHSGISFGKNPTVLAIENYIRENGLTPGDVLPSEAAICEHLSVSRSSVREAMRTLASLDVVEIRHGHGTYVGKMSMAPLVNGMVLRLTLNEKSAIENLQHVVGMRIALDRSNAQELAAYYKGRETPKLDQIVEEMKIQFERGESFEHQDFLFHQLLNDHLSNPLMQEFSMALWEIHTRVVPRLGLRDPEDISNTVQAHAHMVEALRAGDVDKLLETIDEHYQPLLSILEKNRQYVEQTEHAVESQKGTLHL,not soluble
3,QAILYVGHGSRVKKAQQEAAAFLEGCKAHISVPVQEISFLELQEPTIETGFEACVKQGATHIAVVPLLLLTAAHAKHDIPEEIVRVASRYPSVRISYGKPIGIDEEVVKAVYHRMKDIGVPYENARVVLIGRGSSDPDVKRDVTGIANLLQEMVPVKEVIPCFLTACGPNYKEVFSELEKDDGITTFIVPYLLFTGMLMNEIEREVQKLKAHNPNVYLSSYIGFHPHVKNAFLNRVRETAANSEGQFDFDGGSYASAAH,not soluble
4,MNMNKTYIPKLDDLLGGGVKEGASIMFSASPGVDYEAFGYQMLNGRLDEGTRGFIFTNVEEPESIIYEFRSYGWDIESHIENGNLFFVDGSSPFLGMPSDQRYTVNDYSEIKDVVLNAINDIPGGVGIINNLSVIIDYLGNGDTLEIVEAWNRRASELDVNLVYLFTEWDYEPELIDKLRESMDCVVNLRTIEERVIIGQGFMVANSAWSEPPSTMVLFFVVQPGGVKVYVPKILVTGPYNSGKSSFVRAIATKSVSVDRKALSAFPTTIAMDIGHLEYKGFMADIFGTPGQERFDMILDVLSREAVGAFILLDSTAPETFARAKEMIRKTRAEAIPKVVVANKQDLPGALSPEEIREMMKLGADVPIVPASVTEGWGVRDALDTLLGLLYGGLEHHHHHH,not soluble
5,GAHTVDKRFGMDFKEIELIGSGGFGQVFKAKHRIDGKTYVIKRVKYNNEKAEREVKALAKLDHVNIVHYNGCWDGFDYDPETSSKNSSRSKTKCLFIQMEFCDKGTLEQWIEKRRGEKLDKVLALELFEQITKGVDYIHSKKLINRDLKPSNIFLVDTKQVKIGDFGLVTSLKNDGKRTRSKGTLRYMSPEQISSQDYGKEVDLYALGLILAELLHVCDTAFETSKFFTDLRDGIISDIFDKKEKTLLQKLLSKKPEDRPNTSEILRTLTVWKKSPEKNERHTA,soluble
6,MDICSRNKKLTIRRPAILVALALLLCSCKSTPPESMVTPPAGSKPPATTQQSSQPMRGIWLATVSRLDWPPVSSVNISNPTSRARVQQQAMIDKLDHLQRLGINTVFFQVKPDGTALWPSKILPWSDLMTGKIGENPGYDPLQFMLDEAHKRGMKVHAWFNPYRVSVNTKPGTIRELNSTLSQQPASVYVQHRDWIRTSGDRFVLDPGIPEVQDWITSIVAEVVSRYPVDGVQFDDYFYTESPGSRLNDNETYRKYGGAFASKADWRRNNTQQLIAKVSHTIKSIKPGVEFGVSPAGVWRNRSHDPLGSDTRGAAAYDESYADTRRWVEQGLLDYIAPQIYWPFSRSAARYDVLAKWWADVVKPTRTRLYIGIAFYKVGEPSKIEPDWMINGGVPELKKQLDLNDAVPEISGTILFREDYLNKPQTQQAVSYLQSRWGS,soluble
7,MTVASLRGRTGTPVPKREVELRATWSSECVTRPMTEEERIKYGVAIPPKITNADGVQERRPILLPKKSKYAHVTKELVLTEFAKGKTAVQIEREQGMKPNTLYARLRAWGIRSPHSPKLRNETAAPPPSSSDTHRTDNRIDDIFWDVQIELRRAMSRFPRFNSAHEGYAVVLEELDEAWQAIKANDLIHARLGNDAGGRDGDPFPARPSDRRKGGGTATMTKAERSKSKRTATERTKLAIAPNPNRCFVLFSSTYLTAGSAIVSLNSLVRQLEKHPADHPIEDIRLDREALLMEILFVPEGGDPHAKHRSGPDQGI,not soluble
8,GPGSMNNDKSEFYITGMTAGKLPMNNQQMVGYQRRMKIQVNKLMTEKQMTRMDAAAQGNTNTFEPFARERRRATAHVEQYPNIGHSPSGDDATTPKDVIPMLLIKKQLREFGRGRLRMPFTDTLSANVEKFTTPVGQTQVTGQPEILVTEKKLSAEGI,not soluble
9,MVQDWEFIVSFLKINWILMNHVTAPYSYVDVSYDNIPFVGKIPIIGKDGTSSRLGVSPFYPADGNPSNPFPPIYKARPLPLHVPEPQDVVAVPLDEEALHGEPLFPPELILPSELAAEEAAKKKALETKKPENPFADVVETNEQLDTVHWPTAVSTSEIEGEDSQGKNMVQEDEPQRSVIIDEAREKPMQPFEAAKISIGANDRPKNPFRSRRILMERF,not soluble
10,MCGIVGANSTRNVTNILIEGLKKLEYRGYDSAGLAIIDDKNNIDICKEVGKVIELEKSVHNLANFKGDIGIAHTRWATHGKPSKNNSHPHASESFCIVHNGVIENFAELKKVLINDGYKFKSDTDTEVIAHLLQKEWRDNFSIVDNIKYIMAMLKGAYAVAIISQKFSDKIVAVRSGSPLVIGVGIDENFISSDALSLLPVTNKFSYLDEGDIAIISKDNVEVFDNNGAAKNLEVEEYNYSSSSASKDGYKHYMLKEIYEQPEAVSNTILASLADGEISLDSFDKRAKELFEKTKHICIVACGTSYNAGMTAKYWIEKYAKVPCSVEIASEIRYRDNVVVDGSLFVSISQSGETADTLESLRKSKKQNYVGSMCICNVPNSSLVRESDIAFMTKAGVEIGVASTKAFTTQLVALAIFTLVIAKLKNSLTDQQIAKYTEELKNIRALVMGALKLDTEIDQISEYFSDKEHTIFLGRGLYYPIAIEGALKLKEISYIHAEAYPSGELKHGPLALVDKNMPIVAVVPNDELLDKTLSNLQEVHARGGKLILFVDKAVKERVNFDNSIVLELDAGHDFSAPVVFTIPLQLLSYHVAIIKGTDVDQPRNLAKSVTVE,not soluble
11,MGSDKIHHHHHHMKAAVYEGKKAIKMTELPTPKAGPNDVVIQNIYAGICGSDVAVYNHGSGTGHKIETDHEFGHEAVSKVVEVGDDVHDFKIGDRVYPYPLLARGDPSRAGSMGGFSEYILIPNAKLNRQLYLVPKEIDNHVAAMIEPFTVGTRAAKQTRPDKNDNAIVYGTGTIGMAAAVALKHLGVKQVMLVDLSDYRLNVAKELGFLTVNSSRDDVRSQAIEAFGKAEYSLHGEAPDTQIFLDAAGHNSILEDFLQFGPVGSRFVTVGVNNSKPQIDFLELIFGSKSVGGSGGYRPEDVQTVFEIMKERQSDLRKMVSQEFDWQDLEKGIQTATDTTISEKVLINYHL,not soluble
12,MCMHNSGFNLNLPPWVIASRHFNDNPHPLEVQGVRLANRFLFERLDAIASPDERGTVFNDYMSVKFQLHLWQEQATPSARKSLKNSYLRYLRGWMMDSNSVEGAVLKGWVESRMGIVPSFHKARITGIHTESYYGYVVDRTAGSKRTSAINSQLDILYEFCQYELARRFPGELWVTLYRGTFAADDYDVVEELGRREKIIRFNNLVSFTSHEERAWEFGSTVWEIRAPLSKVFFFDDLLPGSILKGEGEYLVIGGEYRVRRVMCTVLEHHHHHH,not soluble
13,MARKLFTPITIKDMTLKNRIVMSPMCMYSSHEKDGKLTPFHMAHYISRAIGQVGLIIVEASAVNPQGRITDQDLGIWSDEHIEGFAKLTEQVKEQGSKIGIQLAHAGRKAELEGDIFAPSAIAFDEQSATPVEMSAEKVKETVQEFKQAAARAKEAGFDVIEIHAAHGYLIHEFLSPLSNHRTDEYGGSPENRYRFLREIIDEVKQVWDGPLFVRVSASDYTDKGLDIADHIGFAKWMKEQGVDLIDCSSGALVHADINVFPGYQVSFAEKIREQADMATGAVGMITDGSMAEEILQNGRADLIFIGRELLRDPFFARTAAKQLNTEIPAPVQYERGW,soluble
14,PSPREQLMESIRKGKELKQSRPPLKKASDRQLGPPRMCEPSPREQLMESIRKGKELKQSRPPLKKASDRQLGPPRMCEPSPREQLMESIRKGKELKQA,soluble
15,MKKIAIFGSAFNPPSLGHKSVIESLSHFDLVLLEPSIAHAWGKNMLDYPIRCKLVDAFIKDMGLSNVQRSDLEQALYQPGQSVTTYALLEKIQEIYPTADITFVIGPDNFFKFAKFYKAEEITERWTVMACPEKVKIRSTDIRNALIEGKDISTYTTPTVSELLLNEGLYRETLSGK,soluble
16,MNIRNARPEDLMNMQHCNLLCLPENYQMKYYFYHGLSWPQLSYIAEDENGKIVGYVLAKMEEDPDDVPHGHITSLAVKRSHRRLGLAQKLMDQASRAMIENFNAKYVSLHVRKRSVKWSPNTMQMGRTPMP,not soluble
17,MDESVDPVELLLRLLIRHKPHLKPYAYRQDSWQRVLDEYNRQTGSRYRQSRTLKTKFRRLKDLFSADRAQFSPSQLKLMGALLDEAPEHPRPRTKFGNESSSSLSSSSFIKSHPGPDPFQQLSSAEHPNNHSSDDEHSGSQPLPLDSITIGIPPTLHTIPMILSKDNDVGKVIKSPKINKGTNRFSETVLPPQMAAEQSWSDSNMELEICLDYLHNELEVIKKRQEDFECKVLNKLNIIEALLSQMRPPSQGDKI,soluble
18,SSFKREGDDWSQLNVLKKRRVGDLLASYIPEDEALMLRDGRFACAICPHRPVLDTLAMLTAHRAGKKHLSSLKLFYGKKQTGKGTEQNPRQQNELKTESKTEAPLLTQTRIITQNALHRAPHYNSCCRRKHRPEAPAPSVSSPPLPTAEVQLQSAEISKEPEPRERSDAKESAALLASAPMSPTKRRVLNHYLTLRSSGWVPDGRGRWIKDENVEFDSDEEEPPDLPLD,soluble
19,MADKENATKIEKMPNSETMKGISSEDVPFEEDIIRNPTSVNCWQRYIDHKLQNKSPAKQMFLIYERALAVFERSYKLWYHYLKYRESTIVNKCPTDNSWRALCDTYERCLMRLHKMPRIWICYCEVMIKRGLITETRRVFDRALRSLPVTQHMRIWTLYIGFLTSHDLPETTIRVYRRYLKMNPKAREDYVEYLIERDQIDEAAKELTTLVNQDQNVSEKGRTAHQLWTQLCDLISKNPVKIFSLNVDAIIRQGIYRYTDQVGFLWCSLADYYIRSAEFERARDVYEEAIAKVSTVRDFAQVYDAYAAFEEREVSIMMQEVEQSGDPEEEVDLEWMFQRYQHLMERKNELMNSVLLRQNPHNVGEWLNRVNIYEGNYNKQIETFKEAVKSVNPKIQVGKVRDLWIGLAKLYEDNGDLDAARKTFETAVISQFGGVSELANVWCAYAEMEMKHKRAKAALTVMQRACVVPKPGDYENMQSVQARVHRSPILWAMYADYEECCGTVESCRKVYDKMIELRVASPQMIMNYAMFLEENEYFELAFQAYEKGIALFKWPGVFDIWNTYLVKFIKRYGGKKLERARDLFEQCLENCPPTHAKYIFLLYAKLEEEHGLARHALSIYNRACSGVDRADMHSMYNIYIKKVQEMYGIAQCRPIFERAISELPEDKSRAMSLRYAQLETTVGEIDRARAIYAHAAEISDPKVHVKFWDTWKNFEVAHGNEATVRDMLRVRRSVEASYNVNVTLTSVQMRVDAERKAQETTTSSNPMDSLDQQQQQPSDGAGSITQVSMNKGNISFVRGAGKTVQQNTTENPDEIDLDEDDDDEEDDGGDADISVKVVPAQIFGNLKLAEEEEEA,soluble
20,MGSDKIHHHHHHMAQSDKDLTLTPLKGKSGQAYIGTYPNGDKIFVKINTTPILAALAKEQIAPQLLWAKRLGNGDMMSAQEWLDGRLLTRADMNSKQIIQVLLQMHKSKPLVNQLLQLNYKVETPLDLLLSWERSAPYQISENAYLQSVVAEMKRNLPDFKKDYATIVHGDVRHSNWVITTSGLVYLVDWDSVRVTDRMYDVAHILSHYIPHTRWVEWLSYYGYKQNTKVFQKIKWYGQLSYLSQILKYYENRDMENVNQEIYELRKFRESF,not soluble

# From the DeepSol protein solubility set
